In assay [1] the target is T1, Ustekinumab.
T1 construct: not shown: the constant regions
The assay can be described thus: ELISA: antigen coated at 5 µg/mL, Fab-FH at 2 µg/mL, HRP-labeled anti-His antibody, QuantaBlu. The procedure: (§1) 5 μg/mL of each of the antigens were coated on a microtiter plate over night. […] Detection was performed using an HRP-labeled anti-His antibody and QuantaBlu fluorogenic peroxidase substrate.
(§2) Therefore 5 μg/mL of each of the antigens were coated on a microtiter plate over night. […] Detection was performed using an HRP-labeled anti-His antibody and QuantaBlu fluorogenic peroxidase substrate.
Background: ELISA stands for enzyme-linked immunosorbent assay.

For a further assay, the target named is T2, Bevacizumab.
T2 construct: not shown: the constant regions
T2 sequence (VH, as listed by the source): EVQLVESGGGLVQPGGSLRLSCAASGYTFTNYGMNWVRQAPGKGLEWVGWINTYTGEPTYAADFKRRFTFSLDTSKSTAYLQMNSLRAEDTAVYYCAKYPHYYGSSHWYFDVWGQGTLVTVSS
The description is as above. As for the experimental part: as §1, §2

Assay [2] concerns the target T3, Rituximab.
T3 construct: Control antigen in the screening ELISA; also called Rituximab (IgG1kappa); not shown: the constant regions
Described as above. The procedure:
as §1, §2

For assay [3], the target named is T4, Adalimumab.
T4 construct: not shown: the constant regions
The description is as above. As for the experimental part: as §1, §2

The next assay has as its target BSA (bovine, UniProt P02769). The assay is described as above. As for the experimental part: as §1, §2
For the next assay, the target named is Adalimumab/TNF-α complex (human, UniProt P01375 77-233). Put plainly: real time, label free interaction analysis, Attana A200, immobilized Adalimumab-TNF-α complex, monovalent.
Adalimumab/TNF-α complex, sequence (P01375 77-233, one chain of several): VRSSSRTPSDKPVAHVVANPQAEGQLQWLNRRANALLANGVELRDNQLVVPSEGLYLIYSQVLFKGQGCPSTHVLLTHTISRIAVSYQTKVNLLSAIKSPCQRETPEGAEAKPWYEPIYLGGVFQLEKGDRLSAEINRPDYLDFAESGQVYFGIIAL
The target of assay [4] is T1, Ustekinumab. The assay can be described thus: ELISA: antigen coated at 5 µg/mL, HRP-conjugated AdaTNF#5-hIgG1 at 2 µg/mL in HiSpec buffer, QuantaBlu. As for the experimental part: (§3) Antigens were coated at 5 μg/mL on a microtiter plate over night. […] Detection was performed using the QuantaBlu® fluorogenic peroxidase substrate. […] (FIG. 3)
Assay [5] has as its target T3, Rituximab. Described as above. The procedure: as §3
Assay [6] concerns the target T4, Adalimumab. The description is as above. As for the experimental part: as §3

Here are results for three molecules from patent US20150197579A1 (MorphoSys, published 2015).

T3 sequence (VH, as listed by the source, chain 1 of 2): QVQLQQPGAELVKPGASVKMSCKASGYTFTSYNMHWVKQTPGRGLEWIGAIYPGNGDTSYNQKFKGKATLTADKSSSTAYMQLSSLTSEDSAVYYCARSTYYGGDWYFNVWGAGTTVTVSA
T3 sequence (VL, as listed by the source, chain 2 of 2): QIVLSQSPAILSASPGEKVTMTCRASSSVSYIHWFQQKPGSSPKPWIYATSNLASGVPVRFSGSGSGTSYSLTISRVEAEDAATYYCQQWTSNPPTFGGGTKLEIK
T1 sequence (VH, as listed by the source): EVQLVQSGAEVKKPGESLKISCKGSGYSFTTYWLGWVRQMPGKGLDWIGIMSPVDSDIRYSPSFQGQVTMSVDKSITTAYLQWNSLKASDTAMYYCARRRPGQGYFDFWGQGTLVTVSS
BSA, sequence (P02769 25-607 limits assumed): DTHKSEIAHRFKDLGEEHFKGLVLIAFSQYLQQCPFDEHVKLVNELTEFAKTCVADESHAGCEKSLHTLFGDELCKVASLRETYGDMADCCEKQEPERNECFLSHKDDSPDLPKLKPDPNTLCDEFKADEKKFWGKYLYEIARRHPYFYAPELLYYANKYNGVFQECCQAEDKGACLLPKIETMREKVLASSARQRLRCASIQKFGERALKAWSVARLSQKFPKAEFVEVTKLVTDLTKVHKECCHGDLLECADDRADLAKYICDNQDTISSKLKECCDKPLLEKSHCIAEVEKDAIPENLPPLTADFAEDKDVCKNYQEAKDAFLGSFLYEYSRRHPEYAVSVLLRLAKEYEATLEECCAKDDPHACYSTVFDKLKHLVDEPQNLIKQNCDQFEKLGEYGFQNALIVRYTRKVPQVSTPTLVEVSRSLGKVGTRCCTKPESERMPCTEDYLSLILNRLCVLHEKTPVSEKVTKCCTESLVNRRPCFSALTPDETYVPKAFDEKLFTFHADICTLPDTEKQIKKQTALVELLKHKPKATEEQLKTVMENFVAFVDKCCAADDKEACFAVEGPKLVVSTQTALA

B1: AdaTNF#1 (Fab, V domains shown)
VH: QVQLVQSGAEVKKPGSSVKVSCKASGGTFSTYAISWVRQAPGQGLEWMGGIIPIFGTANYAQKFQGRVTITADESTSTAYMELSSLRSEDTAVYYCARDYFSSIGWVVYYGPMDYWGQGTLVTVSS
VL: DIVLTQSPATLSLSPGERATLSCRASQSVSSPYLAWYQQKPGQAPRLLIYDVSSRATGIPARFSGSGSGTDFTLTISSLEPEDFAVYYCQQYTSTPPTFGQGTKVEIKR
notes: HuCAL Fab in Fab-FH format, detected by an anti-His antibody; also called anti-Adalimumab/TNF-α antibody in Fab-FH format
For B1, the binding result with Ustekinumab [1], with Bevacizumab, with Rituximab [2], with Adalimumab [3] and with BSA was “no binding (tested: 2 µg/mL)” each time.

B2: AdaTNF#5 (Fab, V domains shown)
VH: QVQLVQSGAEVKKPGSSVKVSCKASGGTFSTNAISWVRQAPGQGLEWMGGINPHLGHADYAQKFQGRVTITADESTSTAYMELSSLRSEDTAVYYCARGWYYIGSNPSMYPNYFDPWGQGTLVTVSS
VL: DIQMTQSPSSLSASVGDRVTITCRASQTISSYLNWYQQKPGKAPKLLIYTASNLQSGVPSRFSGSGSGTDFTLTISSLQPEDFATYYCQQVLHLPHTFGQGTKVEIKR
notes: HuCAL Fab in Fab-FH format, detected by an anti-His antibody; also called AdaTNb/F#5; anti-Adalimumab/TNF-α antibody in Fab-FH format
The term Kd denotes the equilibrium constant for the complex coming apart. Low readings indicate a tighter complex, high ones a looser complex. With B2, the binding result with Ustekinumab [1], with Bevacizumab, with Rituximab [2], with Adalimumab [3] and with BSA was “no binding (tested: 2 µg/mL)” throughout. Also, the Kd with Adalimumab/TNF-α complex was 67 nM.

B3: AdaTNF#5-hIgG1 (antibody, V domains shown)
VH: B2 VH
VL: B2 VL
modifications: antibody conjugated to HRP, site not stated
notes: AdaTNF#5 converted into full length (bivalent) human IgG1, expressed in a human cell line, conjugated to HRP; also called anti-Adalimumab/TNF-α hIgG1 antibody AdaTNF#5 (conjugated to HRP); HRP-conjugated AdaTNF#5-hIgG1
On to B3, for which the binding result with Ustekinumab [4], in the assay with Rituximab [5] and with Adalimumab [6] was “no binding (tested: 2 µg/mL)” each time.
